IC50 data for 59 molecules are collected here from patent publication US20240101959A1, “USE OF IL-2R-BETA-GAMMA AGONIST PEPTIDES IN CELL MANUFACTURING” (MEDIKINE, INC., priority 2022, published 2024).

Positions of bridges follow the written chain, without caps; N, C: chain ends. No end group written: not given here.

The assay has as its target T1, hu-IL-2Rβ subunit (human, UniProt P14784 27-240, limits assumed).
T1 construct: also called human interleukin-2 receptor subunit β; CD122
T1 sequence (looked up): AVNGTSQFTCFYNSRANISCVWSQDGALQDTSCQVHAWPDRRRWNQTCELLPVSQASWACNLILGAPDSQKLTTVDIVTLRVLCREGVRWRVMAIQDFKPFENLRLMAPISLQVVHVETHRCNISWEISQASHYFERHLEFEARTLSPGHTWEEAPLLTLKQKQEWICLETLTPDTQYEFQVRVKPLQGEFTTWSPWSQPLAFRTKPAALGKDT
Description: phage ELISA competition assay. In general terms: An ELISA detects its analyte on a solid surface through an enzyme-linked reagent.

On to YLERSRWYPCFIAQLGELCDLE [SEQ ID NO 411], for which the IC50 (in general, the point on the concentration scale where inhibition reaches its midpoint) is under 100 µM.

In the case of VPRANAWHPCWMAQLGELCDLE [SEQ ID NO 106], the IC50 is under 100 µM.

Molecule AQVWYPCWLAKVGELCDLDQWN [SEQ ID NO 456] returned a half-inhibitory concentration (IC50) of under 100 µM.

WGGRYWCWMAKLGDLCDLEDEW [SEQ ID NO 436]: the IC50 was under 100 µM.

TGEWWPCWVAEVGELCDLERGP (not fully specified (bridges); cysteine pairing not given here) [SEQ ID NO 441]: the half-maximal inhibitory concentration (IC50) was under 100 µM.

Take FRVSRDWFPCWMAQLGEVCDLE (disulfide 10-19 (inferred)) [SEQ ID NO 412]: the half-maximal inhibitory concentration (IC50) is under 100 µM.

With IERAWEWRPCWLASVGELCDLE [SEQ ID NO 413], the IC50 was under 100 µM.

Regarding VRTRIWYPCWSAQLGELCDLD [SEQ ID NO 408], the IC50 is under 100 µM.

WGRKEQWLPCWKAQLGELCDLE [SEQ ID NO 105]: the IC50 was under 100 µM.

Regarding FHPCWRALLGELCDLETALGPS [SEQ ID NO 443], the IC50 was under 100 µM.

Turning to FYPCWAAHLGDLCDLEYQEAGP [SEQ ID NO 421], the IC50 was under 100 µM.

The molecule TEMWYPCWMAYQGELCDLDMTY [SEQ ID NO 426] returned a half-inhibitory concentration (IC50) of under 100 µM.

For the molecule EISNWFLDCMFADVGDLCDL [SEQ ID NO 455], the IC50 is under 100 µM.

Take ARGEYRWFPCWMARLGELCDLE [SEQ ID NO 410]: the IC50 is under 100 µM.

For WYPCWIAKLGEVCDLDQGTTRQ [SEQ ID NO 415], the concentration for half-maximal inhibition (IC50) was under 100 µM.

The molecule WFPCWMAKVGDLCDVDEHQDPS [SEQ ID NO 458] yielded a concentration for half-maximal inhibition (IC50) of under 100 µM.

The molecule WRPCWMAHLGDLCDLEMANENP [SEQ ID NO 423] registered a 50% inhibitory concentration (IC50) of under 100 µM.

Consider NVTYTQWFPCWLARLGELCDLV [SEQ ID NO 407], for which the half-maximal inhibitory concentration (IC50) is under 100 µM.

The molecule AWDWYPCSVAALGEICDLDIQD [SEQ ID NO 430] yielded an IC50 of under 100 µM.

RLVYDCLFAQVGDLCEVIS [SEQ ID NO 438] gave a half-maximal inhibitory concentration (IC50) of under 100 µM.

The molecule VDEFYPCSMAGLGELCDLERQN [SEQ ID NO 429] registered an IC50 of under 100 µM.

Take WWPCWVAKLGELCDLEGDASRV [SEQ ID NO 448]: the concentration for half-maximal inhibition (IC50) is under 100 µM.

Take ARTWWPCWRAKLGELCDLVVPE [SEQ ID NO 427]: the IC50 was under 100 µM.

Molecule WTPCWIAQLGELCDLEGRHGTV [SEQ ID NO 419] came in with a 50% inhibitory concentration (IC50) of under 100 µM.

The molecule SYMHDCFMAQVGDLCDRFIS [SEQ ID NO 450] gave an IC50 of under 100 µM.

In turn, CYMHDCFMAQVGDLCDRFIS [SEQ ID NO 497] had an IC50 of under 100 µM.

Take EPRWYPCWMAQMGELCDMEMSD [SEQ ID NO 435]: the half-inhibitory concentration (IC50) was under 100 µM.

Regarding QTWYLPCWMAKLGELCDLGERD [SEQ ID NO 434], the IC50 was under 100 µM.

As to GRQQKGWYPCWLAQLGELCDME [SEQ ID NO 107], the half-inhibitory concentration (IC50) is under 100 µM.

Take WRILWMQQCWRSHVVNQCAL (not fully specified (bridges); cysteine pairing not given here) [SEQ ID NO 439]: the IC50 is under 100 µM.

In the case of WYPCWLAQLGEVCDLDDGGGVF [SEQ ID NO 424], the IC50 was under 100 µM.

WYPCWLAHLGELCDLDWKGRND [SEQ ID NO 416] had an IC50 of under 100 µM.

Turning to AMARRYLPCWIAKLGELCELD (disulfide 9-18 (inferred)) [SEQ ID NO 409], the IC50 is under 100 µM.

AEYSGRYDCYIAKVGELCDI [SEQ ID NO 445] returned a 50% inhibitory concentration (IC50) of under 100 µM.

Regarding ARTQGWYDCLFAQVGELCDL [SEQ ID NO 442], the half-inhibitory concentration (IC50) was under 100 µM.

In turn, MGDSSSWFPCWMAQLGELCDME [SEQ ID NO 459] came in with an IC50 of under 100 µM.

In the case of WWPCWIAQVGELCDLDGPGRPT (disulfide 4-13 (inferred)) [SEQ ID NO 437], the half-maximal inhibitory concentration (IC50) was under 100 µM.

As for LPCWIAQLGDLCDLEPEPSPE [SEQ ID NO 420], the IC50 is under 100 µM.

Turning to WYPCWRAQLGELCDLVDLGSHL (disulfide 4-13 (inferred)) [SEQ ID NO 417], the IC50 is under 100 µM.

In turn, RPPWYPCWMARLGEVCDMDIML [SEQ ID NO 431] gave a half-maximal inhibitory concentration (IC50) of under 100 µM.

In the case of WWPCWIAQVGELCDLEEESRES [SEQ ID NO 451], the concentration for half-maximal inhibition (IC50) was under 100 µM.

In the case of QTKLEGWYPCWMAQLGELCDLD [SEQ ID NO 104], the IC50 was under 100 µM.

For the molecule WYPCWIAQVGELCDLDEVSHGR [SEQ ID NO 440], the half-maximal inhibitory concentration (IC50) was under 100 µM.

On to KGSWQPCWFAKLGELCDLHPTS [SEQ ID NO 433], for which the concentration for half-maximal inhibition (IC50) was under 100 µM.

Take WLPCWLAPLGDLCDMDMSAVMN [SEQ ID NO 422]: the IC50 was under 100 µM.

As for WWPCWMAQLGEMCDLEYPYVPG [SEQ ID NO 103], the IC50 was under 100 µM.

The molecule FGGKMDWYPCWIANLGELCDLK [SEQ ID NO 457] had a concentration for half-maximal inhibition (IC50) of under 100 µM.

Take WWPCWIADLGELCDLEGPPRGR [SEQ ID NO 453]: the 50% inhibitory concentration (IC50) is under 100 µM.

The molecule NRWWHPCWMARVGELCDLEPDA [SEQ ID NO 447] came in with an IC50 of under 100 µM.

As for PTLITWYDCLFAEVGELCDM [SEQ ID NO 454], the IC50 was under 100 µM.

Molecule LQIRKLWACRIDLVGPFCLL [SEQ ID NO 444] returned a half-inhibitory concentration (IC50) of under 100 µM.

WYPCEFAQLGELCDLLPFPYPA [SEQ ID NO 449] yielded an IC50 of under 100 µM.

As for SQRWYPCWVAHLGELCDLEGVV [SEQ ID NO 432], the concentration for half-maximal inhibition (IC50) is under 100 µM.

For MTDRAFWNPCWVARLGELCDLD [SEQ ID NO 406], the IC50 was under 100 µM.

The molecule KWAWNPCYIARLGELCDLVEPE [SEQ ID NO 452] came in with an IC50 of under 100 µM.

As to WSPCWMASLGDLCDLEETRQTE [SEQ ID NO 418], the IC50 was under 100 µM.

In the case of VASERFYPCWIARLGELCDVE (disulfide 9-18 (inferred)) [SEQ ID NO 414], the half-inhibitory concentration (IC50) is under 100 µM.

Consider HQGFYSCRLARLGELCDLDTGW [SEQ ID NO 428], for which the half-maximal inhibitory concentration (IC50) is under 100 µM.

In turn, SWRFLWQDCGRAHVGELCDL [SEQ ID NO 446] came in with an IC50 of under 100 µM.
